Target: T1, ZIKV envelope protein domain III-hFc fusion protein (ZIKV-DIII-hFc) (Zika virus strain MR766, UniProt Q32ZE1)
T1 chain: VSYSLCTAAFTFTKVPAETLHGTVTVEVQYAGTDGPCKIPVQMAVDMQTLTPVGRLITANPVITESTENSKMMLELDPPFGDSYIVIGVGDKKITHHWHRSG
Test: BLI

B1: m302 IgG1 (antibody, V domains shown)
VH: EVQLVQSGGGLVKPGRSLRLSCAASGFTFSSYAMHWVRQAPGKGLEWVAVISYDGSNKYYADSVKGRFTISRDNSKNTLYLQMNSLRAEDTAVYYCAREIGDYYYYGMDVWGQGTLVTVSS
VL: EIVMTQSPATLSLSPGERATLSCRASQSVSSYLAWYQQKPGQAPRLLIYDASNRATGIPARFSGSGSGTDFTLTISSLQPEDFATYYCQQSYSTPLTFGGGTKVEIK
- koff: 0.00177 s⁻¹

Reference: paper PMC5658772 (2017)
